Laboratory results published in the supplement of paper PMC9170038.

Test system: K4 kissing-loop RNA reporter
Experiment: apparent KD of K4 kissing-loop reporter; higher = weaker reporter binding
Details: Eterna round: R107
Protocol: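 RNA-MaP round R107: designed RNA switches with theophylline, tryptophan, arginine or FMN aptamers are transcribed on-chip within common flanks. They are titrated with a labelled K4 kissing-loop RNA reporter in RNA-MaP buffer (100 mM Tris pH 7.5, 80 mM KCl, 4 mM MgCl2), without ligand or with the indicated ligand. Median apparent KD per design.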

[1] = input ligand: theophylline 20 uM
[2] = input ligand: tryptophan 2.4 mM
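Also: bound reporter read as fluorescence of individual clusters on recovered sequencing chips by microscopy, with normalized cluster intensities fitted with a binding model.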

Sequence	apparent KD of K4 kissing-loop reporter (input ligand: FMN 200 uM) [nM]	apparent KD of K4 kissing-loop reporter (input ligand: arginine 13.2 mM) [nM]	apparent KD of K4 kissing-loop reporter (input ligand: none) [nM]	apparent KD of K4 kissing-loop reporter [1] [nM]	apparent KD of K4 kissing-loop reporter [2] [nM]
UGAGGAGAUUAUGAUACCAGCAGAGAGAGAGAGGAAGUAUAGUGAUGUUAUAUGAGAUAAUGCCCUUGGCAGCAUAAGAAGAAGG [#20 K4 Theophylline B Same State]	182	133	148	147	140
AAAAUAAGCCAGUGAUGUUGGUAUACAGAUACCAGCGACGAAAGUCGCCCUUGGCAGCUGUGGACGUACAAAAUAAGUACGUCCU	364	278	417	780	364
CCGCCAUCGUCAGAUACCAGGCUGAUGGCGGUAACCGCCAAGCGAGUGAUGUUCGCAUCAGUCCCUUGGCAGCUGACGAAGACUG [#16 K4 Theophylline B Same State]	176	86.9	190	283	133
AAUCAAUACAGAAGGAGCGUGACAAUUACUAUUGAAUUAGGUGCUAGUGAUGUUAGCAUUACACAGGUAGGUCGCUGUACAUUUA [JR_SSArginiB_Sub011]	81.4	85.5	87.5	89	78.3
ACGUAGUUCUAGGAUACCAGCCAAGGUGCCAGGACAAAAGUCCUGGCAGUCAGUGAUGUUGGCCCUUGGCAGCCUAGAACUACGA [Omei KL Theo B Exc B v8]	176	196	215	209	218
AUACACGUUGCGGCCGCCACUUCGAUUAGUGAUGUUAGGUGUAAGCAGGCGCUGCAUUAAUGUGAAAGGACCGGGCAGAGUAAGC [theeternabot_exclusion_KL_Trp_B_39]	203	114	160	206	148
GUGCGCGCGGCGGCCGCCACUCGCAUGAGAGUGAUGUUCUCGGGACUGACGCAAGUCAGUCAUGUGAGGACCGGGCCGGGCUGCG [#2 Same State - Tryptophan B Attempt #12 (HarryS)]	1060	1640	447	769	423
GGAUAGGAUAGAGGAUAUGGUUUAUGCAGGAAUAACUUAUUGUGUAAAUCCAUAGGGAGUGAUGUUCCAGAAGGCUGUCCUAUCG [MatMod 14 - Jieux - Exclusion - FMN B]	379	218	230	249	183
AAAAUAAGCCAGUGAUGUUGGUAUCCAGAUACCAGCGACGAAAGUCGCCCUUGGCAGCUGUGGACGUACAAAAUAAGUACGUCCU	194	107	143	266	126
UUGUGCAGCAAACGAGUGAUGUUCGACGAUACCAGCCUCGAUAGAGGCCCUUGGCAGCGUAAUAAUCACAGCCAAGGGCUGCACU [#SwitchBubble 4]	651	535	749	774	560
ACGUGAAGCGACUCCUAGUUAAACCGGGAAGGAGCGCGGAUAACCGCAGGUAGGUCGCCCGGAAGCCGGACCAGUGAUGUUGGUC [Exclusion Arginine A Gf 26]	263	191	207	217	198
GCCGUACGCACGGAUACCAGCACUCGUUGAGUGAUGUUCACGGUGUGGUAUUCAACGGGCUGCCCUUGGCAGCCGUGCGUACGGC	135	91.2	134	139	144
CCAUCGCUAUUCGAUACCAGUCAAAAUAAAAUAAUAAAUCUGCAAAGGAGUGAUGUUCCAGACCCUUGGCAGCGAAUAGUGAUGG [Theophylline B K4 2]	746	552	834	709	723
UGAUACCAGACGGCCGCCACUCCCGUAAGUCAAAGACUUACGAAGAGGGUUUUUUAGUGAUGUUGGAGGACCGGGUCUGGUAUCU [FiskerMod 18 - Jieux - Exclusion - Tryptophan B]	618	256	618	653	2320
AAUUUAUUAACUGAUACCAGACUUUAAUUUAUAUAUAUGUCUAGUGAUGUUAAACAUAUUGUCCCUUGGCAGCAGUAUUUAUUAA [JR_SSTheophyB_Sub020]	761	399	755	768	536
UGACUGGACUGAAGGAGCGAGCGAGACAAAGUCUCGAAAAUUCAGUGAUGUUGAAAUAUAACUCAGGUAGGUCGCAGUCUAGUCU [ArgBS 4 #SwitchBubble #StaticStem]	328	303	377	313	304
AGACCACAAAGUGGUCAGUGUUCGCGGCAGCGAGGACCGGUACGGCCGCCACUCGCGAGUGAUGUUCGCGAGAGCCGCGAACACA [Omei KL Tryp A Exc A v8]	82.7	80.9	82.6	93.8	99.6
GGUUCUGUUUUAGGUUUAGUGAUGUUGAAUCGAGGACCGGUACGGCCGCCACUCGGUGACGUCGUAACUUUGGAGGUCCUAACCA [theeternabot_exclusion_KL_Trp_A_47]	764	642	665	658	438
GUCCAAACACAGUGAUGUUGUGAAUAUGAAGGAGCGGACGAAAGUCCAGGUAGGUCGCAUAAAGGACACCUACGAAAAGUAGGAA [#SwitchBubble 5 #K4Early]	172	201	228	222	159
GUAUAUCGAACUGAUACCAGAGAAUAUAGCAGUGAUGUUGCAUAUAUGAAUAAGACUCGACUCCCUUGGCAGCGGGAAGAUAUAC [On purpose 2]	132	169	137	166	142
CGAGUGAUGUUCGUUUUAAAAUUUUUUUGACAGGAUAUGCGGAAACGCAGAAGGGUCACCUUUGAGUUAAAAGAAAUUAAAUUUU [Ex FMN 16]	175	223	198	224	166

Sequence	apparent KD of K4 kissing-loop reporter (input ligand: FMN 200 uM) [nM]	apparent KD of K4 kissing-loop reporter (input ligand: arginine 13.2 mM) [nM]	apparent KD of K4 kissing-loop reporter (input ligand: none) [nM]	apparent KD of K4 kissing-loop reporter [1] [nM]	apparent KD of K4 kissing-loop reporter [2] [nM]
GGUAGCAUGGCGGCCGCCACUUAAUCACUCCAGGAUGAGGAAUAUAAGCAGUGAUGUUGCUAAGUAAGGACCGGGCCAUGCUACC	269	271	327	354	201
AAUAUACAGGGAAGGAGCGCCGUCCAGUGAUGUUGGAGUUAAAUACCAGUGAUGUUGGUUAGGCAGGUAGGUCGCCCUAAAGUAU [Exclusion Arginine B Gf 2]	125	82.7	105	102	96.7
GUAUCGCUAGGAGGAUAUUCCGUUUUUCAUAGAAAUGGCUAUGCGGAGUGAUGUUCCGAUUUACCGGAAGAAGGCCUAGUGAUAC [FMN B 23]	106	132	149	142	142
UGGUUUAACUGAAGGAGCGGCAAUUGAUAAGUAAAUAUAGUGAUGUUAUAUAAGAUAGAGAGCCAGGUAGGUCGCAGAGGUAUUU [ExArgB.O]	145	147	141	143	141
GUUACGCAUGGAAGGAGCGCGAUUAAAUUUAGUGAGUGAUGUUCACAAAAUAAAACUAAAACGCAGGUAGGUCGCCAUGUGUAAC [Ex Arginine B K4 2]	171	196	188	198	159
CUGGGUUGACGAAAAGUCAACAAAAGAGAAGGAGCGCACGAAAGUGCAGGUAGGUCGCUCAUCCAGUGAUGUUGGAUCAUCCAGA [#SwitchBubble 16 #K4Late]	345	611	316	646	273
GCAACAUUGGUAGGAUAUCAUUCUGAGUGAUGUUCAGGGUUCAGCUAACGAAAGUUAGUUGUACCAUGAGAAGGACUAAUGUUGC [Omei KL FMN B SS A v3]	337	766	1220	1060	915
GCCUAGCAGGGAAGGAGCGCCAUAUAAUUAAAAGGUAAUUAAUGAGUGAUGUUCAAAUAAUGGCAGGUAGGUCGCCCUGCUAGGC [KL-SSArg B10]	316	277	283	354	283
UAGACCUACUCAGGAUAUCCGCAGUGAUGUUGCGGUUGGCCUGAGCGACAUGAAAAUCUUACUAAAGGAGAAGGGAGAGGGUUAC [Ratiteus]	123	79.2	94.3	69.7	88.4
UGGACCAAGGAGUGAUGUUCCAAAUGUGAUACCAGCCACGAAAGUGGCCCUUGGCAGCACUGCCAAAGGACGAAAGUCCGGUCCU [#SwitchBubble 10 #StaticStem #K4Early]	371	352	382	659	280
GCCGUACGCAUGGAUACCAGCUACUAGAGUGAUGUUCUAUGGCCCUGCCAAUGGAGCUGUAGCCCUUGGCAGCCAUGCGUACGGC	130	125	105	122	126
UCCUGCAAUCUGCCACGAAAGUGGAUUGAUACCAGAGUCGAAAGACUCCCUUGGCAGCGAGUGAUGUUCGACGCAGGUAAAUAAA [MatMod 5 - Jieux - Exclusion - Theophylline A]	142	224	178	234	135
CGCUGGGCGAGUGAUGUUCGCUCACGUGAUACCAGUGCCAUCCAACACCCUUGGCAGCACGCGGGCAGUGAUGUUGUCCUUGUGG [Exclusion Theophylline A GF7]	284	241	285	269	268
AAAACUAUCAGAAGGAGCGUGGAAUAUUCAUCUGUAUUUAAUACGAGUGAUGUUCGUAAUUCACAGGUAGGUCGCUGAUCAAUAA [whbob_Ex_Arginine_B_2th154]	269	253	306	305	254
ACGUGCACCAGUGAUGUUGGAAAAUAUGAAGGAGCGUGCGAAAGCACAGGUAGGUCGCAUAAUAGCACGAGCCACGAAAGUGGCA [#SwitchBubble 6 #K4Early #Sliding]	131	159	134	132	102
CAUAGACAAGUGAUGUUUGUCAUAACCGAAGGAGCGUCUUUAAAGACAGGUAGGUCGCGGAUUAAUUAAGUUAUGAUUCUUUUUA [JR_SSArginiA_Sub017]	630	572	661	642	531
GUUUGGCGGACGGCCGCCACUCGGACGAGUCACAGUGAUGUUGUGGUUUGCCAGUCGACUUCAUCGAGGACCGGGUUUGUCGGGC [Exclusion Tryptophan B GF 20]	363	276	395	314	379
AAAUAGAUCAGUCACCCAGUGAUGUUGGAAGGAGCGUGCGAAAGCACAGGUAGGUCGCCAGAAUAAAAUUGGCUGAUCAAAAUAA	260	337	212	393	149
GGUAGCAUGGCGGCCGCCACUCUUCAUUAGUGAUGUUAAUGCCGAGUGCGCUAACUCCGCCAGGAGAGGACCGGGCCAUGCUACC	397	302	406	407	185
GCGCGUCAUGUCAGCGGUGACACUGUCGAUACCAGCGCCGCAAGGCGCCCUUGGCAGCGACGCGCUGGAGUGAUGUUCCAGCGUG [#2 Exclusion - Theophylline A Attempt #14 (HarryS)]	154	148	164	143	169
UGUACCGAGUCAGGAUAUCAUAAAGUUGGAGUGAUGUUCCAAUAACGACUGACAAAGUCGGUCGAUUGAGAAGGGACUUGGUACU [FmnBS 9 #SwitchBubble #StaticStem]	160	139	141	143	151
